Target: T1, FLAG-tagged full-length PU.1, purified (human, UniProt P17947 1-270)
T1 construct: PU.1 transcription factor, full length; also called FLAG-PU.1; purified PU.1; source: 293-ExpiF (Expi293TF) cells, transfected with pCAG, purified (FLAG M2 beads, anion exchange, size exclusion)
Experiment: MST; SMARCD2 SWIFT domain and PU.1; Kd model fit
Conditions: both partners purified

B1: SMARCD2 SWIFT domain, purified from E. coli (domain or fragment, human)
chain: LTQKRKLRIYISNTFSPSKAEGDSAGTAGTPGGTPAGDKVASWELRVEGKLLDDPSKQKRKFSSFFKSLVIELDKELYGPDNHLVEWHRMPTTQETDGFQVKRPGDLNVKCTLLLMLDHQPPQYQHPDPIVINHVISVDPNDQKKTACYDIDVEVD
notes: SMARCD2, human, stretch of the SWIFT domain before the SWIB domain; the text gives aa185–312; also called SMARCD2 YEATS-like SWIFT domain; source: E. coli (pGOOD), purified
Q: With B1 as the binder, how does the Kd read?
A: 3.6 µM

— doi:10.1101/2025.08.01.667725 (bioRxiv, 2025)
